Source: patent US20110217317A1 (published 2011)
Numbering of substitutions follows the chain as printed.

T1: Rhesus D antigen (human, UniProt Q02161 2-417)
T1 construct: whole, on cells; Presented on RhD-positive erythrocytes in all assays; also called RhD; RhD antigen
T1 sequence (looked up): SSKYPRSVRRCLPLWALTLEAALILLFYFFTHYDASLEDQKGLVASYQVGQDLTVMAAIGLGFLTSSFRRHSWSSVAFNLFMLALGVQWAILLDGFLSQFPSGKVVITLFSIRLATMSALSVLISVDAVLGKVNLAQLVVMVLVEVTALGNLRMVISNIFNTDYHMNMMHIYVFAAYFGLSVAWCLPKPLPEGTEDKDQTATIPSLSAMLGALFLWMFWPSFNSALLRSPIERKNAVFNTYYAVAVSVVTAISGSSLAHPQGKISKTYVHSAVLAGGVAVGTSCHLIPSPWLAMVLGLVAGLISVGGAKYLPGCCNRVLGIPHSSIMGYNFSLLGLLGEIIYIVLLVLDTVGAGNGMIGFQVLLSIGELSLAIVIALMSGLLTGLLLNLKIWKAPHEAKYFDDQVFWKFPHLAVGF

B1: RhD295.119B11 (Fab, V domains shown)
VH: QVQLVESGGGLVQPGGSLRLSCVGSGFTFRSFDMNWVRQAPGKGLEWISYINSRGNTRYYVDSVKGRFTISRDNAKNSLYLQMNSLRAEDTAVYYCARDLYGDYDPKSYYYYGMDVWGQGTMVTVSS
VL: EIVLTQSPGTLSLSPGERATLSCRASQSFSSGYLAWYQQKPGQAPRLLIYGASNRATGIPDRFSGSGSGTDFTLTISRLEPEDFAVYYCQHYGSSPPITFGQGTRLEIKR
notes: Tested as Fab (periplasmic extract)
B2: RhD208.179B11 (Fab, V domains shown)
VH: EVQLVESGGGVVQPGRSLRLSCAASGFTFRTSAMHWVRQAPGKGLEWVAVIWYDGSNKYYADSVKGRFTISRDNSKNTLYLQMNSLRAEDTAVYYCAREMVSYSSSWYRRYYYYNMDVWGKGTTVTVSS
VL: QAVVTQEPSLTVSPGGTVTLTCASSTGSVTSGYYPNWFQQKPGQAPRPLISGTSNKLSWTPARFSGSLLGGKAALTVSGVQPEDEAVYYCLLYYGVPQPVVFGGGTKLTVLG
notes: as for B1
B3: RhD242.181A03 (Fab, V domains shown)
VH: B2 VH with R30S, T31N, S32H, A33G, V101A, N115V
VL: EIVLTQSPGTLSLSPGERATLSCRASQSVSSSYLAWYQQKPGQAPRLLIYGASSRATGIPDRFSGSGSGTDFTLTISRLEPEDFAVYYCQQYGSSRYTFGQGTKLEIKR
notes: as for B1
B4: RhD246.179B10 (Fab, V domains shown)
VH: B2 VH with S7T, R30S, T31S, S32Y, A33G
VL: LSSELTQDPAVSVTLGQTVRITCQGDSLRHSYASWYQQKPGQAPILVIYGKNIRPSGIPDRFSGSTSGNTASLTITGAQAEDGGDYYCNSRDTSTDHYVFGDGTRVTVVG
notes: as for B1
B5: RhD294.119E10 (Fab, V domains shown)
VH: QVQLVESGGGVVQPGRSLRLSCAASGFSFSNYGMHWVRQAPGKGLEWVAVISYDGSEKYYADSVKGRFTISRDNSKKTLYLQMNSLRAEDTAMYYCKNKVGATRRAVVAVDIWGQGTMVTVSS
VL: EIVLTQSPGTLSLSPRERATLSCRANQYVNSNHLAWYQQKPGQAPRLLLYGASRRATGIPDRFSGSGTGTDFTLIISRLEPEDFAVYFCQLYDHSRPMYTFGQGTKLEIKR
notes: as for B1
B6: RhD239.126F09 (Fab, V domains shown)
VH: QVQLVESGGGVVQPGTSLRLSCAASGFTFRTYGMHWVRQAPGKGLEWVAYIWYDGSNKYYADSVKGRFTISRDNSKSTLNLQMNSLRAEDTAVYYCAREIASRGYSRYLYYFDSWGQGTLVTVSS
VL: DIQLTQSPSSLSASVGDRVTITCRASQSISSYLNWYQQKPGKAPKLLISAASSLQSGVPSRFSGSGSGTDFTLTISSLQREDYATYYCQQSYSTPPYTFGQGTKLEIKR
notes: as for B1
B7: RhD292.109A02 (Fab, V domains shown)
VH: QVQLVETGGGVVQPGRSLRLSCAASGFTFSSYGMHWVRQAPGKGLEWVAVIWSDGSNKYYADSVKGRFTISRDNSRNTLYLQMNSLRAEDTAVFYCAREQGGYSSSWYRRYYYYYMDVWGQGTTVTVSS
VL: B6 VL with L4M, Y32W, K45N, S49F, S53T, R80P, Y83F, T94S, P95S, P96V
notes: as for B1
B8: RhD244.158B10 (Fab, V domains shown)
VH: QVQLVESGGGVVQPGRSLRLSCAASGFSFSSYGMHWVRQAPGKGLEWVAIIWYDGSNKLYADSVKGRFTISRDNSRNTLYLQMSSVRAEDTAVYYCARDSVRGVSRWGTQKYYAMDVWGQGTTVTVSS
VL: DIQMTQSPSSLSASVGDRVIITCRASQSVNRYLNWYQQKPGKAPKLLIYAASSLQGGVPSRFSGSGSGTDFTLTISSLQREDFATYYCQQSYRTRTFGQGTKVEIKR
notes: as for B1
B9: RhD241.119B05 (Fab, V domains shown)
VH: QVQLQESGPGLVKPSETLSLICTVSGGSISSNYWSWIRQPPGKGLEWIGYIYYSGNTNYNPSLKSRVTISLDTSKNQFSLKLRSVTAADTAVYYCAREWRQYGSGIRGSRYYYGMDVWGQGTLVTVSS
VL: EIVLTQSPVTLSLSPGERATLSCRASQSVSSGYLAWYQQKPGQAPRLLIYGTSIRATGIPDRFSGSGSGTDFTLTISRLEPEDFAVYYCQQYGSSPLYSFGQGTKVDIKR
notes: as for B1
B10: RhD243.109A05 (Fab, V domains shown)
VH: QVQLVESGGGVVQPGRSLRLSCAASGFTFSTYGMHWVRQAPGKGLEWVAVIWYDGSQKYYVDSVKGRFTISRDNSKNTLYLQMNSLRAEDTAVYYCAREVAVRGVIRYYYGMDVWGQGTTVTVSS
VL: DIQLTQSPSSLAASVGDRVIITCRSGQGIRNYLNWYQQKPGKAPKLLIYAASFLQSGVPSRFSGSGSGTDFTLTISSLQPEDFATYNCQQSYSDPWTFGQGTKVEIKR
notes: as for B1
B11: RhD293.109A09 (Fab, V domains shown)
VH: B10 VH with Q1E, S30N, Q57N, V61A, G111A
VL: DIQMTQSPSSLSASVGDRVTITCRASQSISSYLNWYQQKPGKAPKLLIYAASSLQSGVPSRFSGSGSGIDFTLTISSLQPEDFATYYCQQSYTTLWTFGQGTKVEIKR
notes: as for B1
B12: RhD159.119B09 (Fab, V domains shown)
VH: EVQLVETGGGLVQPGGSLRLSCAASGFSFRSYDMNWVRQAPGKGLEWVSYISGRGSTTYYADSVKGRFTISRDNAKNSLYLQMNSLRAEDTAVYYCARDLYGDYDPKSYYYYAMDVWGHGTTVTVSS
VL: EIVMTQSPGTLSLSPGERATLSCRASHTVSSGYLAWYQQKPGQAPRLLIYGASNRATGVPDRFGGSGSGTDFTLTISRLEPEDSAVYFCQQYGTSPGVTFGQGTRLEIER
notes: as for B1
B13: RhD206.160C06 (Fab, V domains shown)
VH: QVQLVESGGGVVQPGRSLRLSCAASGFTFSSYGMHWVRQAPGKGLEWVAIIWFDGSNKYYADSVKGRFTISRDNSKNTLYLQINSLRAEDTAVYYCAKEHGYYSSSWYRNYYYYAMDVWGQGTTVTVSS
VL: DIQMTQSPSSLSASVGDRVTITCRASQSIRRYLNWYQKKPGKAPKLLIYAASSLQSGVPSRFSGSGSGTDFTLTISSLQPEDFATYYCQQSYRTQGLTFGGGTKVEIKR
notes: as for B1
B14: RhD240.125A09 (Fab, V domains shown)
VH: QLQLQESGPGLVKPSGTLSLTCAVSGGSMRSSNWWTWVRQPPGKGLEWIGEIHHGGSTNYNPSLQSRVTISVDKSKNRFSLKLSSVTAADTAVYHCARGRSYYDSSGHSFRGLVPFDIWGQGTMVTVSS
VL: DIQMTQSPSTLSASVGDRVTITCRASQSISSWLAWYQQKPGKAPKLLVYKTSSLEGGVPSRFSGSGSGTEFSLTIFRLQSDDFATYYCQQYNSFPYTFGQGTKLEFTR
notes: as for B1
B15: RhD245.164E06 (Fab, V domains shown)
VH: EVQLVQSGGGVVQPGRSPRLSCAASGFTFSSYGMHWVRQAPGKGLEWVAFIWYDGSNKYYADSVKGRFTISRDNSKNTLYLQMNSLRAEDTAVYYCARDLRNHVFWSGYSTSFDYWGQGTLVTVSS
VL: DIQMTQSPSSLSASVGDGITITCRASQSVRSYLNWYQQKPGKAPELLIYAASRLQSGVPSRFSGSGSGTDFTLTISSLQPEDFATYYCQHSYSTPVTFGQGTKVEVKR
notes: as for B1
B16: RhD158.119B06 (Fab, V domains shown)
VH: EVQLVETGGGVVQPGRSLRLSCAASGFSFSNFGFHWIRQSPGKGLEWVAVIWYDGSNRFYADSVKGRFTISRDSSKNMLFLQMDSLRAEDTAVYYCAREISMKVVIRRHYVMDVWGHGTTVTVSS
VL: DIQMTQSPSPLSASVGDRVSITCRASRGISNSLAWYQQKPGKVPKLLIYAASTLQSGVPSRFSGGGSGTDFTLTISSLQPEDVATYYCHTYNSAPFAFGPGTKVDIKR
notes: as for B1
B17: RhD205.160B12 (Fab, V domains shown)
VH: EVQLVETGGGLVKPGGSLRLSCAASGFTFRSYSMNWVRQAPGKGLEWVSSIGSSSTYTYSADSVKGRFTISRDNAKNSLYLQMNSLRAEDTAVYYCARGEPLNYDYIWGGYRFTIHWGQGTLVTVSS
VL: DIQLTQSPSFLSASVGDRVTITCRASHGISSYLAWYQQKPGKAPNLLIFPASTLQSGVPSRFSGSGSGTEFTLTISSLRPEDFATYYCQQLNSYSRWAFGQGTKVEVKR
notes: as for B1

target: T1, Rhesus D antigen; test: agglutination assay, Fab on RhD(+)/RhD(-) RBC mix
Procedure: After each round of panning single colonies were picked for analysis of their binding properties to red blood cells in agglutination assays. Briefly, single colonies were inoculated into 2×YT/100 μg/mL carbenicillin/1% glucose and shaken overnight at 37° C. The next day, DeepWell plates were inoculated using 900 μl 2×YT/100 μg/mL carbenicillin/0.1% glucose and 10 μl overnight culture. The plates were shaken for two hours at 37° C., before Fab induction was performed with addition of 300 μl 2×YT/100 μg/mL carbenicillin/0.25 mM IPTG per well. The plate was shaken overnight at 30° C. The following day, the bacteria were pelleted by centrifugation (3200×g, 4° C., 10 minutes), and re-suspended in 100 μl of 0.8 M NaCl, 0.2×PBS, 8 mM EDTA, and incubated for 15 minutes on ice in order to perform a periplasmic extraction of the Fab fragments. The plate was transferred to −20° C. and finally the suspension was thawed and centrifugation was performed for 10 minutes at 4° C. and 3200×g. The periplasmic extract was used in ELISA assays for analysis of Fab content and in agglutination assays to evaluate the binding potential of the individual Fab fragments. The agglutination assay was performed as follows: RhD(−) and RhD(+) RBC were mixed in a 1:1 ratio, and washed 3 times in PBS. After the final wash, the cell mix was re-suspended in 1% BSA in PBS at a density of 1% cells, 50 μl was added to each well of a 96-plate. Periplasmic extracts were added to the wells. As a positive control Rhesogamma P immunoglobulin (Aventis) was used according to the manufacturer's instructions. The plates were incubated for one hour at room temperature with gentle shaking. The cells were washed three times with PBS, before the secondary antibody was added (goat anti-human Fab/FITC conjugate, Sigma F5512) in a 1:100 dilution. The plates were left for agglutination for one hour at room temperature without shaking. Fab fragments positive in the agglutination assay was determined by visual inspection, and recorded by taking a picture. Quantization of the binding activity of the Fab fragments was performed by FACS analysis of the agglutination samples.

Binding result, binds:
B1, B2, B3, B4, B5, B6, B7, B8, B9, B10, B11, B12, B13, B14, B15, B16, B17
